Laboratory results published in patent US20170275666A1, “Methods for Preparing Rebaudioside I and Uses” (The Coca-Cola Company, priority 2014, published 2017).
Substitutions are numbered along the chain they refer to.

B1: UGT76G1var60: UGT76G1 variant, mutations E231A_L243A_V279I_S357N (protein, UniProt Q6VAB4 1-458, looked up, variant E231A L243A V279I S357N)
UDP-glycosyltransferase 76G1: MENKTETTVRRRRRIILFPVPFQGHINPILQLANVLYSKGFSITIFHTNFNKPKTSNYPHFTFRFILDNDPQDERISNLPTHGPLAGMRIPIINEHGADELRRELELLMLASEEDEEVSCLITDALWYFAQSVADSLNLRRLVLMTSSLFNFHAHVSLPQFDELGYLDPDDKTRLEEQASGFPMLKVKDIKSAYSNWQILKEILGKMIKQTKASSGVIWNSFKELEESELATVIREIPAPSFAIPLPKHLTASSSSLLDHDRTVFQWLDQQPPSSVLYISFGSTSEVDEKDFLEIARGLVDSKQSFLWVVRPGFVKGSTWVEPLPDGFLGERGRIVKWVPQQEVLAHGAIGAFWTHNGWNSTLESVCEGVPMIFSDFGLDQPLNARYMSDVLKVGVYLENGWERGEIANAIRRVMVDEEGEYIRQNARVLKQKADVSLMKGGSSYESLESLVSYISSL
B2: UGT76G1var61: UGT76G1 variant, mutations I43V_F265I_Q266S_L379A (protein, UniProt Q6VAB4 1-458, looked up, variant I43V F265I Q266S L379A)
UDP-glycosyltransferase 76G1: B1 UDP-glycosyltransferase 76G1 with I43V, A231E, A243L, F265I, Q266S, I279V, N357S, L379A
B3: UGT76G1var62: UGT76G1 variant, mutations L243P_P272A_V394I_V396F (protein, UniProt Q6VAB4 1-458, looked up, variant L243P P272A V394I V396F)
UDP-glycosyltransferase 76G1: B1 UDP-glycosyltransferase 76G1 with A231E, A243P, P272A, I279V, N357S, V394I, V396F
B4: UGT76G1var63: UGT76G1 variant, mutations F314S_R334H_Q342K_L379G (protein, UniProt Q6VAB4 1-458, looked up, variant F314S R334H Q342K L379G)
UDP-glycosyltransferase 76G1: B1 UDP-glycosyltransferase 76G1 with A231E, A243L, I279V, F314S, R334H, Q342K, N357S, L379G
B5: UGT76G1var64: UGT76G1 variant, mutations F22L_A239I_R334H_I407V (protein, UniProt Q6VAB4 1-458, looked up, variant F22L A239I R334H I407V)
UDP-glycosyltransferase 76G1: B1 UDP-glycosyltransferase 76G1 with F22L, A231E, A239I, A243L, I279V, R334H, N357S, I407V
B6: UGT76G1var65: UGT76G1 variant, mutations A33G_A239V_P382M_Q425E (protein, UniProt Q6VAB4 1-458, looked up, variant A33G A239V P382M Q425E)
UDP-glycosyltransferase 76G1: B1 UDP-glycosyltransferase 76G1 with A33G, A231E, A239V, A243L, I279V, N357S, P382M, Q425E
B7: UGT76G1var66: UGT76G1 variant (round 1), mutations F265L_V310I_V366I_A385T (protein, UniProt Q6VAB4 1-458, looked up, variant F265L V310I V366I A385T)
UDP-glycosyltransferase 76G1: B1 UDP-glycosyltransferase 76G1 with A231E, A243L, F265L, I279V, V310I, N357S, V366I, A385T
B8: UGT76G1var67: UGT76G1 variant, mutations E224D_F314S_S375R_Y397E (protein, UniProt Q6VAB4 1-458, looked up, variant E224D F314S S375R Y397E)
UDP-glycosyltransferase 76G1: B1 UDP-glycosyltransferase 76G1 with E224D, A231E, A243L, I279V, F314S, N357S, S375R, Y397E
B9: UGT76G1var4: UGT76G1 variant, mutations E224D_E231A_F265I (protein, UniProt Q6VAB4 1-458, looked up, variant E224D E231A F265I)
UDP-glycosyltransferase 76G1: B1 UDP-glycosyltransferase 76G1 with E224D, A243L, F265I, I279V, N357S
B10: UGT76G1var68: UGT76G1 variant, mutations Q342K_G348P_I373L_Y397E (protein, UniProt Q6VAB4 1-458, looked up, variant Q342K G348P I373L Y397E)
UDP-glycosyltransferase 76G1: B1 UDP-glycosyltransferase 76G1 with A231E, A243L, I279V, Q342K, G348P, N357S, I373L, Y397E
B11: UGT76G1var69: UGT76G1 variant, mutations S274G_I295T_I335V_L379A (protein, UniProt Q6VAB4 1-458, looked up, variant S274G I295T I335V L379A)
UDP-glycosyltransferase 76G1: B1 UDP-glycosyltransferase 76G1 with A231E, A243L, S274G, I279V, I295T, I335V, N357S, L379A
B12: UGT76G1var70: UGT76G1 variant, mutations E224A_I295T_V300A_G348P (protein, UniProt Q6VAB4 1-458, looked up, variant E224A I295T V300A G348P)
UDP-glycosyltransferase 76G1: B1 UDP-glycosyltransferase 76G1 with E224A, A231E, A243L, I279V, I295T, V300A, G348P, N357S
B13: UGT76G1var71: UGT76G1 variant, mutations I295M_V300A_K393G_Q432E (protein, UniProt Q6VAB4 1-458, looked up, variant I295M V300A K393G Q432E)
UDP-glycosyltransferase 76G1: B1 UDP-glycosyltransferase 76G1 with A231E, A243L, I279V, I295M, V300A, N357S, K393G, Q432E
B14: UGT76G1var72: UGT76G1 variant, mutations T284L_D301N_K303G_S375R (protein, UniProt Q6VAB4 1-458, looked up, variant T284L D301N K303G S375R)
UDP-glycosyltransferase 76G1: B1 UDP-glycosyltransferase 76G1 with A231E, A243L, I279V, T284L, D301N, K303G, N357S, S375R
B15: UGT76G1var73: UGT76G1 variant, mutations F22Y_D301N_R334H_Q342E_V396F (protein, UniProt Q6VAB4 1-458, looked up, variant F22Y D301N R334H Q342E V396F)
UDP-glycosyltransferase 76G1: B1 UDP-glycosyltransferase 76G1 with F22Y, A231E, A243L, I279V, D301N, R334H, Q342E, N357S, V396F
B16: UGT76G1var74: UGT76G1 variant, mutations I295T_I373L_S375R_Y397Q_Q432E (protein, UniProt Q6VAB4 1-458, looked up, variant I295T I373L S375R Y397Q Q432E)
UDP-glycosyltransferase 76G1: B1 UDP-glycosyltransferase 76G1 with A231E, A243L, I279V, I295T, N357S, I373L, S375R, Y397Q, Q432E
B17: UGT76G1var75: UGT76G1 variant, mutations F41L_A239I_Q266S_S375M_P382M (protein, UniProt Q6VAB4 1-458, looked up, variant F41L A239I Q266S S375M P382M)
UDP-glycosyltransferase 76G1: B1 UDP-glycosyltransferase 76G1 with F41L, A231E, A239I, A243L, Q266S, I279V, N357S, S375M, P382M
B18: UGT76G1var76: UGT76G1 variant, mutations F22Y_A239I_L246F_I295M_R334K (protein, UniProt Q6VAB4 1-458, looked up, variant F22Y A239I L246F I295M R334K)
UDP-glycosyltransferase 76G1: B1 UDP-glycosyltransferase 76G1 with F22Y, A231E, A239I, A243L, L246F, I279V, I295M, R334K, N357S
B19: UGT76G1var77: UGT76G1 variant, mutations A239V_F265I_I295T_D301N_K393G (protein, UniProt Q6VAB4 1-458, looked up, variant A239V F265I I295T D301N K393G)
UDP-glycosyltransferase 76G1: B1 UDP-glycosyltransferase 76G1 with A231E, A239V, A243L, F265I, I279V, I295T, D301N, N357S, K393G
B20: UGT76G1var5: UGT76G1 variant, mutations F22Y_I373L_P382M (protein, UniProt Q6VAB4 1-458, looked up, variant F22Y I373L P382M)
UDP-glycosyltransferase 76G1: B1 UDP-glycosyltransferase 76G1 with F22Y, A231E, A243L, I279V, N357S, I373L, P382M
B21: UGT76G1var78: UGT76G1 variant, mutations V279I_V300A_V310I_I335V_S357C (protein, UniProt Q6VAB4 1-458, looked up, variant V279I V300A V310I I335V S357C)
UDP-glycosyltransferase 76G1: B1 UDP-glycosyltransferase 76G1 with A231E, A243L, V300A, V310I, I335V, N357C
B22: UGT76G1var79: UGT76G1 variant, mutations E224D_T284I_V366I_I373L_K393G (protein, UniProt Q6VAB4 1-458, looked up, variant E224D T284I V366I I373L K393G)
UDP-glycosyltransferase 76G1: B1 UDP-glycosyltransferase 76G1 with E224D, A231E, A243L, I279V, T284I, N357S, V366I, I373L, K393G
B23: UGT76G1var80: UGT76G1 variant, mutations L243P_L379A_S389E_Q425E_Q432E (protein, UniProt Q6VAB4 1-458, looked up, variant L243P L379A S389E Q425E Q432E)
UDP-glycosyltransferase 76G1: B1 UDP-glycosyltransferase 76G1 with A231E, A243P, I279V, N357S, L379A, S389E, Q425E, Q432E
B24: UGT76G1var81: UGT76G1 variant, mutations A33G_T263S_S274G_V279I_Y397E (protein, UniProt Q6VAB4 1-458, looked up, variant A33G T263S S274G V279I Y397E)
UDP-glycosyltransferase 76G1: B1 UDP-glycosyltransferase 76G1 with A33G, A231E, A243L, T263S, S274G, N357S, Y397E
B25: UGT76G1var82: UGT76G1 variant, mutations E224D_L243A_F265L_R334H_A352G (protein, UniProt Q6VAB4 1-458, looked up, variant E224D L243A F265L R334H A352G)
UDP-glycosyltransferase 76G1: B1 UDP-glycosyltransferase 76G1 with E224D, A231E, F265L, I279V, R334H, A352G, N357S
B26: UGT76G1var83: UGT76G1 variant, mutations I43V_Q342E_S357N_S375R_L379G (protein, UniProt Q6VAB4 1-458, looked up, variant I43V Q342E S357N S375R L379G)
UDP-glycosyltransferase 76G1: B1 UDP-glycosyltransferase 76G1 with I43V, A231E, A243L, I279V, Q342E, S375R, L379G
B27: UGT76G1var84: UGT76G1 variant, mutations F22L_Q266S_F314S_A352G_S357C (protein, UniProt Q6VAB4 1-458, looked up, variant F22L Q266S F314S A352G S357C)
UDP-glycosyltransferase 76G1: B1 UDP-glycosyltransferase 76G1 with F22L, A231E, A243L, Q266S, I279V, F314S, A352G, N357C
B28: UGT76G1var85: UGT76G1 variant, mutations T284L_G348P_F377C_P382M_N409R (protein, UniProt Q6VAB4 1-458, looked up, variant T284L G348P F377C P382M N409R)
UDP-glycosyltransferase 76G1: B1 UDP-glycosyltransferase 76G1 with A231E, A243L, I279V, T284L, G348P, N357S, F377C, P382M, N409R

test: Directed evolution of UGT76G1, conversion of Rebaudioside D to Rebaudioside M (round 1); assay type: biochemical; conditions: 0.5 mM Rebaudioside D, 2.5 mM UDP-Glucose, 100 μL fresh lysate, 30° C., pH 7.2
Method in brief: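 Conversion to Reb M and initial rate were measured by HPLC with CAD at 2, 4, 7 and 24 h, with reactions run at 30° C in 50 mM phosphate pH 7.2 containing 0.5 mM Reb D, 2.5 mM UDP-glucose and 3 mM MgCl2. Enzyme source: fresh lysates of E. coli BL21(DE3) expressing 3-5-mutation UGT76G1 variants.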

Row | Molecule | Conversion Reb D to Reb M after 24 h (%) | initial rate (Reb M area/min)
1 | B1 | 0.5 | 9.5E+04
2 | B2 | 6.4 | 2.0E+06
3 | B3 | 0.1 | 3.4E+04
4 | B4 | 3.4 | 1.2E+06
5 | B5 | 0.3 | 3.1E+04
6 | B6 | 1.2 | 3.3E+05
7 | B7 | 0.8 | 3.7E+05
8 | B8 | −2.1 | −5.6E+05
9 | B9 | 14.7 | 8.6E+06
10 | B10 | −1.4 | −1.1E+05
11 | B11 | 24.7 | 8.3E+06
12 | B12 | 24.0 | 8.4E+06
13 | B13 | 42.9 | 2.1E+07
14 | B14 | 19.2 | 9.1E+06
15 | B15 | 0.8 | 8.7E+05
16 | B16 | 0.6 | 9.6E+04
17 | B17 | 0.8 | −1.3E+05
18 | B18 | 2.6 | 7.2E+05
19 | B19 | 1.9 | 4.4E+05
20 | B20 | 3.5 | 2.3E+06
21 | B21 | 3.2 | 8.2E+05
22 | B22 | 8.5 | 3.8E+06
23 | B23 | 1.0 | 2.1E+05
24 | B24 | 15.0 | 6.5E+06
25 | B25 | 1.1 | 2.5E+05
26 | B26 | 0.5 | 4.3E+04
27 | B27 | 1.2 | 2.3E+05
28 | B28 | 1.8 | 4.0E+05
